Laboratory results published in publication PMC4703857.

Legend:
[1] = target: human haemoglobin (human); test: ITC
[2] = target: haemoglobin:haptoglobin complex (UniProt P00738); test: ITC
[3] = target: transferrin (Homo sapiens) (UniProt P02787); settings: cited from earlier work
[4] = target: Kingella denitrificans HpuA, wild type (Kingella denitrificans); test: NMR titration
[5] = target: KdHpuA Δloop-1 (Kingella denitrificans); test: NMR titration
[6] = target: KdHpuA T124D (Kingella denitrificans); test: NMR titration
[7] = target: Kingella denitrificans HpuA, wild type (Kingella denitrificans); test: ITC

UniProt P02787, sequence (P02787 20-698): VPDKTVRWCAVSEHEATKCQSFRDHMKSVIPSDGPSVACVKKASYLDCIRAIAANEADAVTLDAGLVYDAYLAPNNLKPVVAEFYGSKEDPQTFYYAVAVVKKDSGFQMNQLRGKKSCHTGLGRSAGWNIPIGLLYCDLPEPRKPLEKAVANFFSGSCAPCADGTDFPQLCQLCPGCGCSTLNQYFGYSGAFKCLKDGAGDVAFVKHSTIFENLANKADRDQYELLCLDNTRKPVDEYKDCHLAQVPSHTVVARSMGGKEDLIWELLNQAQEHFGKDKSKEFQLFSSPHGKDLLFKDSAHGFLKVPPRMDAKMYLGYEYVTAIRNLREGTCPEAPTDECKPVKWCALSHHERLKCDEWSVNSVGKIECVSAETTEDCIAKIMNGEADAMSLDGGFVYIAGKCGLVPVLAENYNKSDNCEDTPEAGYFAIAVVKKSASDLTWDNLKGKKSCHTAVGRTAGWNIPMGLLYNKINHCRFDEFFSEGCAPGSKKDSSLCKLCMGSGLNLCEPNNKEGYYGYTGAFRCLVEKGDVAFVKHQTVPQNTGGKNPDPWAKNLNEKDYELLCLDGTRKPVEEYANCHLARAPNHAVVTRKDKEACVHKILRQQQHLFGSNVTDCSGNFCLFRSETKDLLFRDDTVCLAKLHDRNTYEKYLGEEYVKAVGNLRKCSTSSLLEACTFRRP

## Kingella denitrificans HpuA, wild type (natural protein)
[1]
  Kd: 10.9 µM
  stoichiometry N (HpuA per Hb tetramer): 2
[2]
  Kd: 2.9 µM
  stoichiometry N (HpuA per Hb4:Hp4 complex): 2

## TbpAB (from UniProt Q9K0U9)
[3]
  Kd: 0.0008 µM

## human haemoglobin (complex)
[4]
  Kd: 10 µM
[5]
  Kd: 150 µM
[6]
  Kd: 16 µM
[7]
  Kd: 6.1 µM
  stoichiometry N (Hb tetramers per HpuA): 0.5
